From patent publication US20110263454A1, “Methods of Identifying Functional Characteristics of Promoters, Transcription Modifying Proteins and Transcription Modulating Agents” (Salk Institute for Biological Studies, priority 2008, published 2011)

B1: CTF1: COUP-TF1 (NR2F1), cDNA driver (protein, UniProt P10589 1-423, looked up)
COUP transcription factor 1: MAMVVSSWRDPQDDVAGGNPGGPNPAAQAARGGGGGAGEQQQQAGSGAPHTPQTPGQPGAPATPGTAGDKGQGPPGSGQSQQHIECVVCGDKSSGKHYGQFTCEGCKSFFKRSVRRNLTYTCRANRNCPIDQHHRNQCQYCRLKKCLKVGMRREAVQRGRMPPTQPNPGQYALTNGDPLNGHCYLSGYISLLLRAEPYPTSRYGSQCMQPNNIMGIENICELAARLLFSAVEWARNIPFFPDLQITDQVSLLRLTWSELFVLNAAQCSMPLHVAPLLAAAGLHASPMSADRVVAFMDHIRIFQEQVEKLKALHVDSAEYSCLKAIVLFTSDACGLSDAAHIESLQEKSQCALEEYVRSQYPNQPSRFGKLLLRLPSLRTVSSSVIEQLFFVRLVGKTPIETLIRDMLLSGSSFNWPYMSIQCS
B2: CTF3: COUP-TF3 (NR2F6), cDNA driver (protein, UniProt P10588 1-404, looked up)
Nuclear receptor subfamily 2 …: MAMVTGGWGGPGGDTNGVDKAGGYPRAAEDDSASPPGAASDAEPGDEERPGLQVDCVVCGDKSSGKHYGVFTCEGCKSFFKRSIRRNLSYTCRSNRDCQIDQHHRNQCQYCRLKKCFRVGMRKEAVQRGRIPHSLPGAVAASSGSPPGSALAAVASGGDLFPGQPVSELIAQLLRAEPYPAAAGRFGAGGGAAGAVLGIDNVCELAARLLFSTVEWARHAPFFPELPVADQVALLRLSWSELFVLNAAQAALPLHTAPLLAAAGLHAAPMAAERAVAFMDQVRAFQEQVDKLGRLQVDSAEYGCLKAIALFTPDACGLSDPAHVESLQEKAQVALTEYVRAQYPSQPQRFGRLLLRLPALRAVPASLISQLFFMRLVGKTPIETLIRDMLLSGSTFNWPYGSGQ
B3: hMR: Mineralocorticoid Receptor (NR3C2, MR), cDNA driver (protein, UniProt P08235 1-984, looked up)
Mineralocorticoid receptor: METKGYHSLPEGLDMERRWGQVSQAVERSSLGPTERTDENNYMEIVNVSCVSGAIPNNSTQGSSKEKQELLPCLQQDNNRPGILTSDIKTELESKELSATVAESMGLYMDSVRDADYSYEQQNQQGSMSPAKIYQNVEQLVKFYKGNGHRPSTLSCVNTPLRSFMSDSGSSVNGGVMRAVVKSPIMCHEKSPSVCSPLNMTSSVCSPAGINSVSSTTASFGSFPVHSPITQGTPLTCSPNVENRGSRSHSPAHASNVGSPLSSPLSSMKSSISSPPSHCSVKSPVSSPNNVTLRSSVSSPANINNSRCSVSSPSNTNNRSTLSSPAASTVGSICSPVNNAFSYTASGTSAGSSTLRDVVPSPDTQEKGAQEVPFPKTEEVESAISNGVTGQLNIVQYIKPEPDGAFSSSCLGGNSKINSDSSFSVPIKQESTKHSCSGTSFKGNPTVNPFPFMDGSYFSFMDDKDYYSLSGILGPPVPGFDGNCEGSGFPVGIKQEPDDGSYYPEASIPSSAIVGVNSGGQSFHYRIGAQGTISLSRSARDQSFQHLSSFPPVNTLVESWKSHGDLSSRRSDGYPVLEYIPENVSSSTLRSVSTGSSRPSKICLVCGDEASGCHYGVVTCGSCKVFFKRAVEGQHNYLCAGRNDCIIDKIRRKNCPACRLQKCLQAGMNLGARKSKKLGKLKGIHEEQPQQQQPPPPPPPPQSPEEGTTYIAPAKEPSVNTALVPQLSTISRALTPSPVMVLENIEPEIVYAGYDSSKPDTAENLLSTLNRLAGKQMIQVVKWAKVLPGFKNLPLEDQITLIQYSWMCLSSFALSWRSYKHTNSQFLYFAPDLVFNEEKMHQSAMYELCQGMHQISLQFVRLQLTFEEYTIMKVLLLLSTIPKDGLKSQAAFEEMRTNYIKELRKMVTKCPNNSGQSWQRFYQLTKLLDSMHDLVSDLLEFCFYTFRESHALKVEFPAMLVEIISDQLPKVESGNAKPLYFHRK
B4: CTF2: COUP-TF2 (NR2F2), cDNA driver (protein, UniProt P24468 1-414, looked up)
COUP transcription factor 2: MAMVVSTWRDPQDEVPGSQGSQASQAPPVPGPPPGAPHTPQTPGQGGPASTPAQTAAGGQGGPGGPGSDKQQQQQHIECVVCGDKSSGKHYGQFTCEGCKSFFKRSVRRNLSYTCRANRNCPIDQHHRNQCQYCRLKKCLKVGMRREAVQRGRMPPTQPTHGQFALTNGDPLNCHSYLSGYISLLLRAEPYPTSRFGSQCMQPNNIMGIENICELAARMLFSAVEWARNIPFFPDLQITDQVALLRLTWSELFVLNAAQCSMPLHVAPLLAAAGLHASPMSADRVVAFMDHIRIFQEQVEKLKALHVDSAEYSCLKAIVLFTSDACGLSDVAHVESLQEKSQCALEEYVRSQYPNQPTRFGKLLLRLPSLRTVSSSVIEQLFFVRLVGKTPIETLIRDMLLSGSSFNWPYMAIQ

system: mPgc1b promoter; assay: NHR-promoter luciferase screen, mPgc1b promoter; assay type: cell-based, mouse; details: PGC1b promoter reporter; co-transfected HR, without or with its ligand
In short: (§1)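 Luciferase reporter read-out after co-expression in CV-1 cells of V5H6-tagged receptor (alone or with RXR), the promoter construct and LacZ. Values are luciferase/LacZ relative to a control lacking NHR or ligand; orphan receptors tested ligand-free.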

Row | Molecule | Luc. act., normalized to lacZ
1 | B1 | 6.7
2 | B2 | 4.9
3 | B3 | 5.7
4 | B4 | 12.2

same assay, conditions: PGC1b promoter reporter; co-transfected HR, without or with its ligand; relative to control

Row | Molecule | Normalized Luc. act., normalized to control
5 | B1 | 0.6
6 | B2 | 0.4
7 | B3 | 0.5
8 | B4 | 1.0

same assay, conditions: mPgc1b promoter-luciferase, CV-1 cells, NHR +/- ligand, control = 1.00

Row | Molecule | luciferase activity normalized to lacZ activity and to a control, mPgc1b
9 | B1 | 0.57
10 | B2 | 0.42
11 | B3 | 0.48
12 | B4 | 1.03

system: MCP-1 promoter; assay: NHR-promoter luciferase screen, MCP-1 promoter; assay type: cell-based; details: MCP-1 promoter reporter; HR without or with its ligand; relative to control
In short: (§2)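 CV-1 cells were co-transfected with 50 ng NHR (homodimer or NHR/RXR heterodimer), 100 ng promoter-luciferase construct and 50 ng LacZ. Luciferase was normalized to LacZ and to a no-NHR/no-ligand control.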

Row | Molecule | Normalized Luc. act., normalized to control
13 | B1 | 0.0
14 | B2 | 1.6
15 | B3 | 0.0
16 | B4 | 0.0

same assay, conditions: MCP-1 promoter reporter; hormone receptor (HR) without or with its ligand

Row | Molecule | Luc. act., normalized to lacZ
17 | B2 | 175.5

same assay, conditions: transcription factor +/- ligand; control = 1.00

Row | Molecule | mMCP-1 promoter reporter activity
18 | B1 | 0.00
19 | B2 | 1.64
20 | B3 | 0.00
21 | B4 | 0.00

system: hCYP3A4 promoter; assay: NHR-promoter luciferase screen, hCYP3A4 promoter; assay type: cell-based, human; details: CYP3A4 promoter; HR/ligand component
In short: as §1

Row | Molecule | Luc. act., normalized to lacZ | Normalized Luc. act., normalized to control
22 | B1 | 2.6 | 0.6
23 | B2 | 6.1 | 1.4
24 | B3 | 2.6 | 0.6
25 | B4 | 2.7 | 0.6

same assay, conditions: transcription factor +/- ligand; control = 1.00

Row | Molecule | hCYP3A4 promoter reporter activity
26 | B1 | 0.59
27 | B2 | 1.37
28 | B3 | 0.58
29 | B4 | 0.61

system: mDio1 promoter; assay: NHR-promoter luciferase screen, mDio1 promoter; assay type: cell-based, mouse; details: Dio1; HR component without or with its ligand
In short: as §2

Row | Molecule | Luc. act., normalized to lacZ | Normalized Luc. act., normalized to control
30 | B1 | 17.3 | 3.9
31 | B2 | 10.0 | 2.2
32 | B3 | 2.4 | 0.5
33 | B4 | 20.9 | 4.7

same assay, conditions: transcription factor +/- ligand; control = 1.00

Row | Molecule | mDio1 promoter reporter activity
34 | B1 | 3.89
35 | B2 | 2.23
36 | B3 | 0.55
37 | B4 | 4.69

system: mDio2 promoter; assay: NHR-promoter luciferase screen, mDio2 promoter; assay type: cell-based, mouse; details: Dio2; HR component without or with its ligand
In short: as §2

Row | Molecule | Luc. act., normalized to lacZ | Normalized Luc. act., normalized to control
38 | B1 | 15.7 | 1.0
39 | B2 | 15.3 | 1.0
40 | B3 | 12.7 | 0.8
41 | B4 | 18.8 | 1.2

same assay, conditions: transcription factor +/- ligand; control = 1.00

Row | Molecule | mDio2 promoter reporter activity
42 | B1 | 1.00
43 | B2 | 0.97
44 | B3 | 0.81
45 | B4 | 1.20

system: mABCA1 promoter; assay: NHR-promoter luciferase screen, mABCA1 promoter; assay type: cell-based, mouse; details: ABCA1 promoter; hormone receptor with or without its ligand
In short: as §2

Row | Molecule | Luc. act., normalized to lacZ
46 | B1 | 5.5
47 | B2 | 5.6
48 | B3 | 6.8
49 | B4 | 4.7

same assay, conditions: ABCA1 promoter; hormone receptor with or without its ligand; relative to control

Row | Molecule | Normalized Luc. act., normalized to control
50 | B1 | 1.0
51 | B2 | 1.0
52 | B3 | 1.2
53 | B4 | 0.8

same assay, conditions: transcription factor +/- ligand; control = 1.00

Row | Molecule | mABCA1 promoter reporter activity
54 | B1 | 0.99
55 | B2 | 1.01
56 | B3 | 1.21
57 | B4 | 0.84
